Measured values as given in article PMC9974095, “TP63 gain-of-function mutations cause premature ovarian insufficiency by inducing oocyte apoptosis” (The Journal of Clinical Investigation, 2023).
One block for each molecule: values may come before it.

What was measured:
TAp63αΔTID = assay: co-IP (anti-p63 IP, GFP Western blot, quantified); settings: HEK293 cells cotransfected with TAp63αΔTID and GFP-TID plasmids; 3 independent experiments; parent: est. 6.4; read off a plot
[1] = molecular target: TAp63α p.Q568fs*3 (human) (UniProt Q9H3D4); assay: native gel or EMSA; BN-PAGE (NativePAGE 3%-12% Bis-Tris) of lysates of transfected SAOS-2 cells treated with 10 uM MG132 for 12 h; blot with anti-p63
[2] = molecular target: the molecule itself; assay: as above

response (TAp63αΔTID): 0.58 % Input
Molecule: GFP-TID, wild type L646P

stoichiometry N [1]: 4
Molecule: TAp63α p.Q568fs*3 (from UniProt Q9H3D4-1 1-567) (domain or fragment)

response (TAp63αΔTID): 3.5 % Input
Molecule: GFP-TID, wild type R647C

The next lines start with the molecule.

Molecule: GFP-TID, wild type R655Q
response (TAp63αΔTID): 2.8 % Input

Molecule: GFP-TID, wild type R643Q
response (TAp63αΔTID): 2.4 % Input

B1: TAp63α p.R647C (natural protein, human, UniProt Q9H3D4-1 1-680, looked up)
chain: MNFETSRCATLQYCPDPYIQRFVETPAHFSWKESYYRSTMSQSTQTNEFLSPEVFQHIWDFLEQPICSVQPIDLNFVDEPSEDGATNKIEISMDCIRMQDSDLSDPMWPQYTNLGLLNSMDQQIQNGSSSTSPYNTDHAQNSVTAPSPYAQPSSTFDALSPSPAIPSNTDYPGPHSFDVSFQQSSTAKSATWTYSTELKKLYCQIAKTCPIQIKVMTPPPQGAVIRAMPVYKKAEHVTEVVKRCPNHELSREFNEGQIAPPSHLIRVEGNSHAQYVEDPITGRQSVLVPYEPPQVGTEFTTVLYNFMCNSSCVGGMNRRPILIIVTLETRDGQVLGRRCFEARICACPGRDRKADEDSIRKQQVSDSTKNGDGTKRPFRQNTHGIQMTSIKKRRSPDDELLYLPVRGRETYEMLLKIKESLELMQYLPQHTIETYRQQQQQQHQHLLQKQTSIQSPSSYGNSSPPLNKMNSMNKLPSVSQLINPQQRNALTPTTIPDGMGANIPMMGTHMPMAGDMNGLSPTQALPPPLSMPSTSHCTPPPPYPTDCSIVSFLARLGCSSCLDYFTTQGLTTIYQIEHYSMDDLASLKIPEQFRHAIWKGILDHRQLHEFSSPSHLLRTPSSASTVSVGSSETRGERVIDAVRFTLCQTISFPPRDEWNDFNFDMDARRNKQQRIKEEGE
notes: Variant found in three patients with POI; source: SAOS-2, transfected, MG132-treated, in lysate
stoichiometry N [2]: 4
